Key:
pancreatic cancer cells = conditions: cited from earlier work
[1] = NMR titration of CP-1 with DG12; assay type: binding; conditions: 1H–1H COSY, equimolar CP-1 and DG12, 20 mM, d6-DMSO, 25 °C
[2] = Circular dichroism of DG12; assay type: physicochemical; conditions: circular dichroism spectrum
CP-1 (cyclic peptide 1) [3] = assay: BLI
CP-1 (cyclic peptide 1) [4] = assay: QCM-D
CP-1 (cyclic peptide 1) [5] = assay: electrochemical impedance spectroscopy
CP-1 (cyclic peptide 1) [6] = assay: nanochannel device, transmembrane ionic current and Faraday current

Q: For `Cc1sc(C(=O)c2cncnc2N[C@@H]2C[C@H](COS(N)(=O)=O)[C@@H](O)C2)cc1[C@@H]1NCCc2ccc(Cl)cc21` [TAK-981], which “effect on SUMOylation” value (pancreatic cancer cells) is on record?
A: selectively reduces SUMOylation

Q: Which results are given for DVIEVYQEQTGG [DG12]?
A: largest chemical shift changes upon complexation, protons of DG12 [1]: H13 (isoleucine; C–H), H45 (glutamine; C–H), H51 (threonine; C–H), and H54 (glycine; N–H); conformation [2]: random coil conformation

Q: With DVIEVYQEQTGG [DG12, terminal dodecapeptide sequence of SUMO1] as the molecule, how does the Kd (CP-1 (cyclic peptide 1) [3]) read?
A: 5.86 µM

Q: And the adsorption amount (CP-1 (cyclic peptide 1) [4])?
A: 142 ng cm^−2

Q: What about the Rct increase at 10 nM DG12 (CP-1 (cyclic peptide 1) [5]) of the same molecule?
A: 277%

Q: And the transmembrane ionic current increase ratio at 1 × 10^−6 M DG12 (CP-1 (cyclic peptide 1) [6])?
A: 84%

From paper PMC10411628 (Chemical Science, 2023)
